Laboratory results from PMC1310897.

Tests used:
Assay in all cases: fluorescence polarization
[1] = molecular target: RecQ F158L (Escherichia coli, UniProt P15043 1-609, F158L)
[2] = molecular target: RecQ R159L (Escherichia coli, UniProt P15043 1-609, R159L)
[3] = molecular target: RecQ W154L (Escherichia coli, UniProt P15043 1-609, W154L)
[4] = molecular target: RecQ WT (Escherichia coli, UniProt P15043 1-609)

Measured: binding result

GCGTGGGTAATTGTGCTTCAATGGACTGAC (ssDNA) [oligo 1 ssDNA (30 nt)]
binds: [1] | [2] | [3] | [4]
